From paper PMC7413259, “Identification of the viral RNA promoter stem loop A (SLA)-binding site on Zika virus polymerase NS5”

Legend:
[1] = target: ZIKV NS5 MTase domain WT (Zika virus, UniProt A0A142I5B9 2521-2785); assay: fluorescence anisotropy; buffer B2; B1: 50 mM Tris-HCl pH 8.0, 150 mM NaCl, 1 mM MgCl2, 2 mM beta-mercaptoethanol, 10% glycerol, 20 C; B2: same with 100 mM NaCl, 20 C; settings: protein: recombinant; tags: N-terminal His6; label: etheno-A fluorescence; single strand
[2] = target: ZIKV NS5 WT (Zika virus, UniProt A0A024B7W1 2521-3423); assay: fluorescence titration; buffer B1; B1: 50 mM Tris-HCl pH 8.0, 150 mM NaCl, 1 mM MgCl2, 2 mM beta-mercaptoethanol, 10% glycerol, 20 C; B2: same with 100 mM NaCl, 20 C; settings: protein: recombinant; tags: N-terminal His6-SUMO, cleaved; label: etheno-A fluorescence; single strand

B1: epsilonA(p-epsilonA)19 20-mer ssRNA (ssRNA)
RNA: AAAAAAAAAAAAAAAAAAAA
modifications: all A etheno-modified (1,N6-ethenoadenosine)
How did the Kd [1] turn out when B1 was run?
The Kd was 910 nM.

What about the Kd [2] of the same binder?
The Kd was 500 nM.
